Among the data in a protein production outcome set (Wang et al. 2014) are protein production values, retold here.

The series is described as follows: label from the status in PepcDB records.
Turning to “MEKSSFAAANMTIMSEPTTPTSQAHDSGASANVIATVETEIRQTARFPTRWTAISSALVVLLCVLALILVPIPFVARSPGQTVNLLSTNERGKPMIQVDGLTTRHGEGEMRMTTVSITRADSRLSMAEALVAHLRADHDVLQREAIYPPGRSPQQVDADESYMMDTSERDAAVAALRAAGQPVTEMPMVSAVSAAGPAHGKLAPGDLIEKVDGKPMASVLDVGKAVRKHTVGDTVVFVVLRNSSVKTIAVTTVSSVSDRRAPAVGVTIDTGYRYTPTITYNIPGDIVGPSAGLAMALSIYQMVAPNDLIGSLRIAGTGGISPDGNVVAIGGIQEKIAGAERDGAKIFLVPAGNCRDISGVETSMRLVKVSSLKDAIAAIQKIRAGGTGIPHC”, the protein production result is “failed”.

In the case of “MEKVTFVRIADLENHNNDGGFWTVIDGKVYDIKDFQTQSLTENSILAQFAGEDPVVALEAALQFEDTRESMHAFCVGQYLEPDQEGVTIP”, the protein production result is on record as “not failed”.

For “MEKYEELFARIKEKAKLIDEKIFELIPEKDPRVLYEAARHYPLAGGKRVRPFVVLTSTEAVGGDPLRAIYPAVAIELIHNYSLVHDDIMDMDETRRGKPTVHRIWGVNMAILAGDLLFSKAFEAVARAEIPPEKKARVLEVIVKASNELCEGQARDLEFEKKSTVTIEEYMEMISGKTGALFEASAKVGGIIGTDNEEYIKALSSWGRNVGIAFQIWDDVLDLIADEKKLGKPVGSDIRKGKKTLIVAHFFENADEKDKQRFLKIFGKYAGDVKGRGIIEEDIKSDVMEAIDLLKKYGSIDYAAEIAKDMIKKANEALRILPKSKARMDLELLAKFIVEREY”, the protein production result was “not failed”.

For “MEKYIFWVTAIFQIGVFALMLYYLFIALFGFYKKKDTKTFEPQKKFAMLVAAHNEEVVIENLVESLKHLDYPKELYDIFVIADNCTDNTAKIARAAGANVFERFNKEKRGKGFALEWMFDKIFKMDTHYDGIAVFDADNLVDKNFLKEMNNKMCEGFKVVQGYIDSKNPQDSWITESYAIAFTSANRMLQLAKSNIGLSAQIGGTGFVIDTATLKKLGWGATCLTEDLEFSCKLILNGEKVGWAHDAIIYDEKPLTLKASWNQRKRWMQGFADVATRYGMKLLKKSIKDRSLVAFDCTLYVMQPFVTLATGLAGLLTFVQIRAVDGLGIFVISYLFNATVWQLFCVFQFLLTPFALLFDKKMSGKLFVVLGLYACNVFIQPYLINQLGILDNIMLLTLFNVAYIGIFLIGTLLFLGKRNFQIFYRYLIYPLYILTWIPITIQGIIDKDKKEWSHTKHVRQIGIYEV”, the protein production entry was “failed”.

In the case of “MELDGKAPSHRNLNVQTWSTAEGAKVLFVEARELPMFDLRLIFAAGSSQDGNAPGVALLTNAMLNEGVAGKDVGAIAQGFEGLGADFGNGAYKDMAVASLRSLSAVDKREPALKLFAEVVGKPTFPADSLARIKNQMLAGFEYQKQNPGKLASLELMKRLYGTHPYAHASDGDAKSIPPITLAQLKAFHAKAYAAGNVVIALVGDLSRSDAEAIAAQVSAALPKGPALAKIEQPAEPKASIGHIEFPSSQTSLMLAQLGIDRDDPDYAAVSLGNQILGGGGFGTRLMSEVREKRGLTYGVYSGFTPMQARGPFMINLQTRAEMSEGTLKLVQDVFAEYLKNGPTQKELDDAKRELAGSFPLSTASNADIVGQLGAMGFYNLPLSYLEDFMRQSQELTVEQVKAAMNKHLNVDKMVIVSAGPTVAQKPLEHHHHHH”, the protein production entry was “not failed”.

For “MELISIIVPVYNGEIYIGRCLDSILEQTYQNLEIIIIDDGSSDRTGDICEKYFLEDRRIKYFYQENRGQSVARNNGVLRCTGDWIAFLDSDDVYLPYSIEVMYNIQKATNADIVLTSIGNFNNTYNTSINSQYLKEIKLYTLEVALEEMYYGKTYGVSPLAKLYPRSNLLSNPYPEGKIHEDMDTTFKLISCASKIAVCDIVTAVVYFSDNSTTRTKFNERMLYFFEAIQNNIVFINLNFPHNTSLISAVIYNEVFGGIDICGKMIDFKLYDTVDYYRKKYRKYFKTILFNNRISVKEKVKYILFISSIRYFTIVRKIYNLRLSRNGLEHHHHHH”, the protein production result is “failed”.

For “MELKDYYAIMGVKPTDDLKTIKTAYRRLARKYHPDVSKEPDAEARFKEVAEAWEVLSDEQRRAEYDQMWQHRNDPQFNRQFHHGDGQSFNAEDFDDIFSSIFGQHARQSRQRPATRGHDIEIEVAVFLEETLTEHKRTISYNLPVYNAFGMIEQEIPKTLNVKIPAGVGNGQRIRLKGQGTPGENGGPNGDLWLVIHIAPHPLFDIVGQDLEIVVPVSPWEAALGAKVTVPTLKESILLTIPPGSQAGQRLRVKGKGLVSKKQTGDLYAVLKIVMPPKPDENTAALWQQLADAQSSFDPRKDWGKA”, the protein production entry is given as “failed”.

As to “MELKMNDINQHSFLKLGSVRHIQSEQEALEIAKEMANQLNQFARNPSYNKTVPYDQARLISEAGLTAIIVPKQFGGLGASISTLVNVVKIISSADGGVGQLLQIHFTMFRGILTGYDDEIRDQLLADVLSGKRLGNALAEVGGKDKFQHKTRVERNSEGKLILNGSKFYSTGSLLAEWISLFAGSDDGPVSILIHRDTQGVELLNDWDAMGQNNSVSGTVNFKDVVVDERYVAKRNTGGLGTVLRTGLTWPQILHAAMDTGIAKGALQGGIDYLQHHARPWVESGVDSPTHESHIIKQIGEFAVLVRSAEALLDRSAQIFEQHLANVEDEDLQTELILSVAATRSQSDHASLKISSEIFGLLGASSTLSKWNLDRFWRNARTHTTHDPIRWRLYHVGNYYLNNIPPGEYNSVLLKKQAENVTKFSK”, the protein production entry is on record as “failed”.

Turning to “MELLKHLSQRQYIDGEWVESANKNTRDIINPYNQEVIFTVSEGTKEDAERAILAARRAFESGEWSQETAETRGKKVRAIADKIKEHREALARLETLDTGKTLEESYADMDDIHNVFMYFAGLADKDGGEMIDSPIPDTESKIVKEPVGVVTQITPWNYPLLQASWKIAPALATGCSLVMKPSEITPLTTIRVFELMEEVGFPKGTINLILGAGSEVGDVMSGHKEVDLVSFTGGIETGKHIMKNAANNVTNIALELGGKNPNIIFDDADFELAVDQALNGGYFHAGQVCSAGSRILVQNSIKDKFEQALIDRVKKIKLGNGFDADTEMGPVISTEHRNKIESYMDVAKAEGATIAVGGKRPDRDDLKDGLFFEPTVITNCDTSMRIVQEEVFGPVVTVEGFETEQEAIQLANDSIYGLAGAVFSKDIGKAQRVANKLKLGTVWINDFHPYFAQAPWGGYKQSGIGRELGKEGLEEYLVSKHILTNTNPQLVNWFSK”, the protein production entry was “not failed”.

“MELLKIDCLGKSLRLEGSLAGWQLLFWDNNLVSQKAASVDNGGLKVHQFELTQHHSQLASDSGEAQVLENKILVRLETDVVWQPFRFDYRLLVDEEVIAQGTRTEKDIERQMPEIPVTAPQKFSFVGLASLGFKLLKSAKVIKVVLAGASVAAYSWLFSFQFALALIACLVFHEYGHIRAMKYFGMKTKGIYLIPFMGGLALSDEKINTRWQDVVISIMGPTFGLLMSVGSLIAYHFTDNIFFAGLAAFNALLNLFNLLPILPLDGGHILKSISFSMNSIMGLIACVIGAAFGVYISYTLGLALLGFLLLIGSLEIVFEWRSRHQSHLLPLDRYGQIFSTIWYLATVAALVGIIWHLAGTGDDMLSLPLQILRS”: the protein production entry is listed as “failed”.

For the sequence “MELQLAIDLLNKEDAAELANKVKDYVDIVEIGTPIIYNEGLPAVKHMADNISNVKVLADMKIMDAADYEVSQAIKFGADVITILGVAEDASIKAAIEEAHKNNKQLLVDMIAVQDLEKRAKELDEMGADYIAVHTGYDLQAEGQSPLESLRTVKSVIKNSKVAVAGGIKPDTIKDIVAESPDLVIVGGGIANADDPVEAAKQCRAAIEGK”, the protein production entry is “failed”.

As to “MELTLALVIFVICYLLIMAETFNRAVVACLGGVLMLFVGIYPLDAAFLQYIDWHTITLLLSMMILVSITSQSGFFEYMAIRLAQKVDGRPIPLLIVVAGITAIGSAFLNNVTMVLLIVPIVLTLTNLLKLNAVPFLLTLVMASNIGGTATLIGDPPNLMIGQAVAHLSFNDFLLHLGPIVAVIFFVVLIGLILYYRRQLSVTAEDRSRLRGVDPTSYLKNRPLLIKSMTVLTLTTIGFTIQPFLPVELTSIAMAGALLLMLITQNEQDMEGVFRSVEWVTLFFFIGLFMLVGGIKEVGIIDEIAKAIIYYTEGDIPKTSLFILWGSGILSGFVDNIPFVAAMIPVILEFQEYGVGELDPLWWSLALGACLGGNATVIGATANVIVAGLAVQAKQSFSYLEFLKVGAPVALVSFLLCTVYLYIRYLIYF”, the protein production entry was “failed”.

Regarding “MELVAGSYEQVLFGFTVQRGPAKSGHQETWTPVADFTHHSHTASLSVLASNSRYVVSGSKDETIHIYDMKRKVEHGALVHHAGTVTCLKFHGNQHLISGAEDGHICIWDVKRWKCLKTFKAHRGHVTFLSIHPSGKLALSVGTDKTLRTWNLIEGRSAFIKNIKENAHIVEWSPSGGKYIVVVQNKVDVYRLGTASVSGTITNGKRISSVTFLSDSVLAVAGDEEVVRIFDCDSLECLCEFRAHENRVKDMVSFEVPDHHVLVTASNDGFIKMWTLPQDKKVPPSLLCEAKTGARLTCLTVWLDRAANGMASLPPAAEPCPDQPKTIEKESGDTVQEETSEPNSEKSDVSGDSKQPTKGNSPVTAKKRKMATMSEKKRKKKMSLTWQIPDFSSLSECPFDGILHVPVRRKYLLP”, the protein production result is on record as “failed”.

For “MELVHGISTHFIQSKKFKTNKITVRFTAPLSLDTIAGHMLSASMLETANQMYPTSQDLRRHLASLYGTDMSTNCFRRGQSHIIELTFTYVRDEFLSRKNVLTSQILELVKETLFSPVVVDNGFDPALFEIEKKQ”, the protein production entry is “failed”.

As for “MENFAEIVGIGPAGVISITGGGGKTSLMFHLARQLAYSGKRVLTTTTTKILAPSVEESRTLLISQDPQVILRHAKAHPGPGVHVSAAAGHIPHTEKLQGFPREAIRTFEDSGEFDWVVVEADGAARKPLKAPAAHEPVIPGNSTIVVALAGLEVLGRPLGEEMVFRSELAGELMQIPQGETITVPALARLLAHPSGGFKGAPPQARRFIFLNKADTPELQEKGGEVALQLKEIAPSVAEAVIVGQLRQEITLHRVYPRGELEHHHHHH”, the protein production result was “not failed”.

In the case of “MENIKNPKNADDCSDSISKNSHQGVDDSLNQSRSYVCSFCIRGFSNAQALGGHMNIHRRDRAKLRQKLMEDNKDDVVAESDASEVVSLDLNEQQQQQGEALTCDDHDQYVDNDISPKQKLEFWVQESKLDTNDHGKVTEASIDGSSSSHHRDIEVLDLELRLGQSVVKKKTT”, the protein production result was “failed”.

Take “MENKRNVCSLGESSIKRHKSDLSFSSKERKDKVGERISALQQIVSPYGKFPCSFVQVLSAPYLQTVPDATQEELEQYSLRNRGLCLVPMENTVGVAQSNGADIWAPVKTPLSPAFSVTSQSPFR”: the protein production entry is “failed”.

For the sequence “MENQTPSQALISKGWKYFIIVGVIVALAGLGATSLPVMAGVTISTIIGTLLLITGLVQVYHTFRIHSWKEKLWYVLSALFYIVGALFILFKPLEGLMTITTIMIVIMIFNGLTRMIFGFTNRSLPGCGMVILSGLLSVVIGGYFFSLFDNPEFSLSLLGTFVGVSLIFEGMSFLFIGLRLRNASKA”, the protein production result was “failed”.

“MENRAHAFLAGLFTIGLAIFIALAVVWFNRDQTVRVPYEVVTRSTVNGLSPQAAVKYRGLDVGKVDSIRFDDRVPGQIIVRVLVDKDAPITTTTYGRLAYQGVTGLAYVQLDDRGYDGGKRAANPTRLETSDRRPARIAMEAGFLDELDKRGDQMLARIDQTLSSLSALFDDEHRQALMAAMQSFQGTMDSYNALARQAEPTMRRLPQIADNLDATLSATRRLSQSLSDPKGPLMGTLASAGNDLSSASQSMQAATNVLANETLPQLNGFAREARQAVRSFDHAVTDFNTRPQSVLFGPAPATPGPGETGFAAPQVSAAPSVAVPATARP”: the protein production result is recorded as “failed”.

As to “MENWVIQIIERLGYLGIAFLMFLDNVFPPIPSEIIMPSAGYTASRGQLQIIGVIVAGSLGSILAAAILYALGRQISHAALFRWTDRYGKYLLIQTKDLQIALEWFEKYGHRIVFFGRMIPAVRSLISIPAGMSRMPFWKFMLYSSLGTVIWTTFLAGVGFYFGENQAFMFSIMHRVGYLILAITLMVSVWWIYHKFYKKR”, the protein production entry was “failed”.
